The experiment concerns the target T1, UC4F10-11 hamster anti-mouse CTLA4 antibody.
T1 construct: also called mouse anti-CTLA4 antibody (clone UC4 F10-11); anti-CTLA4
Nature of the experiment: bacterial display / FACS screening with labelled anti-CTLA4 antibody.

T1 sequence (VH, as listed by the source limits assumed, chain 1 of 2): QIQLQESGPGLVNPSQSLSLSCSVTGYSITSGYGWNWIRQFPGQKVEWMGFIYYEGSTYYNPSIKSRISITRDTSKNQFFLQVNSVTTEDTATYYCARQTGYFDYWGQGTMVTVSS
T1 sequence (VL, as listed by the source limits assumed, chain 2 of 2): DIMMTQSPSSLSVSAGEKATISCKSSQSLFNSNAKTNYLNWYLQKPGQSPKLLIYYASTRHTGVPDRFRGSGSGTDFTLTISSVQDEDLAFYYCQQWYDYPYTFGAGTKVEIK
Procedure: Subsequent rounds of enrichment were carried out using FACS. For the initial round of FACS, bacteria were sorted using biotinylated target (5 nM) and secondary labeling step with streptavidin phycoerythrin. […] Relative affinity and off-rate screening of individual clones were performed using a ficin digested Dylight-labeled Fab antibody fragment to reduce avidity effects of the bivalent antibody due to the expression of multiple peptides on the bacterial surface. As an additional test of target specificity, individual clones were screened for binding in the presence of 20 uM E. Coli depleted IgG as a competitor.

B1: Negative control (does not bind anti-CTLA4) (peptide)
peptide: PCSEWQSMVQPRCYY
notes: The printed peptide has A where the printed DNA encodes Q; also called MMneg; negative control MM
As to B1, the binding result was “no binding”.

The record behind these values is patent US20130309230A1 (published 2013).
